Source: publication PMC9563011

Target: IL-2Rα Fc tag (UniProt P01589)
UniProt P01589, sequence (P01589 22-240): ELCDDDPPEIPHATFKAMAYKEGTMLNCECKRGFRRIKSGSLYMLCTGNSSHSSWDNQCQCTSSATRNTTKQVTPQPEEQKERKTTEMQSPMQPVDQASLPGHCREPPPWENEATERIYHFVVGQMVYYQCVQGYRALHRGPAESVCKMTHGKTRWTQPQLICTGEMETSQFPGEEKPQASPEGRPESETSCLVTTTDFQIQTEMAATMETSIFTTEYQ

IL-2K35C (from UniProt P60568 22-153) (ligand)
EC50 of CTLL-2 cell proliferation (CellTiter-Glo, 48 h, 50 to 0.002 ng/mL): 14 ng/mL
